Reference: patent publication US7851592B2, “Compositions and methods for inhibiting G2 cell cycle arrest and sensitizing cells to DNA damaging agents” (CanBas Co. Ltd., priority 1999, dated 2010)

What was measured:
human Chk2 kinase = human Chk2 kinase (Homo sapiens, UniProt O96017); assay: In vitro phosphorylation (kination) of membrane-immobilized peptides by human Chk2 kinase (Gst-Chk2); assay type: biochemical; set-up: key to phosphorylation signal by human Chk2 kinase (graded) / in vitro phosphorylation by human Chk2 kinase (graded signal): a “+++” indicates the peptide was relatively highly phosphorylated; a “++” indicates the peptide was relatively less phosphorylated; a “+” indicates the peptide was detectably significantly phosphorylated over negative control; no indication indicates that a peptide was not significantly phosphorylated over negative control; conditions: for phosphorylation signal by human Chk2 kinase (graded) / phosphorylation by human Chk2 kinase (in words): peptide on membrane, Gst-Chk2; for phosphorylation signal by human Chk2 kinase (graded) / in vitro phosphorylation by human Chk2 kinase (graded signal): γ-33P-ATP, RT 1 hr; for in vitro phosphorylation by human Chk2 kinase (graded signal): image analyzer signal graded −
Experimental: Exemplary peptides were directly synthesized (immobilized) on a membrane and contacted with human Chk2 kinase. Specifically, oligo-peptides with all sequences predicted by the 3-dimensional model were directly synthesized on a membrane by using an auto-spot-peptide-synthesizer, Model ASP-22 2 (ABiMED, Germany). The amount of peptide was about 0.1 micro-mol/cm^2.
The membrane was incubated with 2% Gly-Gly in PBS for 2 hours (hr) at room temperature (RT). Then, they were washed three times with 0.1% Tween-P BS™. The “kination,” or “phosphorylation,” reaction was performed with a recombinant fusion protein Gst-Chk2 at a concentration of about 5 μg in 4 ml reaction buffer, 1 mM MgCl2, 2% Gly-Gly and γ-^33P-ATP in PBS at RT for 1 hr. After the reaction, the membrane was washed 5 times with RIPA (1% SDS, 1% NP-40, 100 mM NaCl) and analyzed with a Bass 2500™ image analyzer (Fuji, Japan).
The following Table 1 is a complete list of tested peptides and results of the in vitro phosphorylation by human Chk2 kinase assay.
The following example describes studies which identified exemplary G2 checkpoint-abrogating peptides of the invention. The following peptides of the invention were synthesized directly on membranes and tested in in vitro phosphorylation (“kination” assays, as described above.
These peptides were tested in in vitro kination reactions. The oligopeptides were used as phosphorylation substrates; added kinases are involved in the cell cycle G2 checkpoint. Thus, a substance that inhibits the kination reaction can be a cell cycle 62 checkpoint abrogator. For the detection of the phosphorylation status of substrates in this screening method, isotope-labeled ATP and anti-phospho-peptides antibody can be used.

[1] = tested on: histone H1 kinase activity; assay: Histone H1 kinase assay on lysates of treated Jurkat cells; assay type: cell-based, human; conditions: FIG. 2B; bleomycin 10 μg/ml or hydroxyurea 100 μg/ml; 6 hr
Experimental: Histone H1 kinase assay. Ten million Jurkat cells were treated with hydroxyurea (100 μg/ml), bleomycin (10 μg/ml), or colchicine (5 μg/ml) with or without addition of TAT-S216A, TAT-S216 or TAT-Control (10 μM) for 6 hr. The cells were washed in cold PBS and lysed at 4° C. in 1 ml of buffer A (50 mM Tris pH 8, 2 mM DTT, 5 mM EDTA, 100 mM NaCl, 0.5% NP40, 20 mM Na3V04, 50 mM NaF, 4 μM Okadaic acid, 5 μg/ml aprotinin, 5 μg/ml pepstatin A and 5 μg/ml leupeptin.). Twenty microliter of p13^suc1 agarose beads (Upstate Biotechnology., Saranac, N.Y.) were added to the cleared lysates, incubated for 4 hr at 4° C., and washed five times with buffer A without 5 mM EDTA, 20 mM Na3V04, 50 mM NaF, 4 μM Okadaic acid. Histone HI kinase activity on the beads were analyzed by using Cdc2 kinase assay kit (Upstate Biotechnology) with [γ-^32P] ATP, followed by 12% SDS-PAGE electrophoresis, and autoradiographed to detect the phosphorylated Histone H1.
The cell cycle status of the cells treated with TAT-S216A or TAT-S216 upon the DNA damage-induced G2 arrest was analyzed by FACS analysis. Histone H1 kinase activities of theses cells were simultaneously monitored. […] Results are shown in FIG. 2: abrogation of DNA damage-induced G2 arrest by TAT-S216A and TAT-S216 peptides. FIG. 2A, FACS analysis of Jurkat cells treated with bleomycin and peptides. Cells were treated with bleomycin (10 μg/ml) with or without peptides (10 μM) for 20 hr. B, histone H1 kinase analysis. Cell lysates were prepared from the cells treated with the indicated reagent for 6 hr. Concentrations used were: hydroxyurea (HU), 100 μg/ml; bleomycin (Bleo), 10 μg/ml; colchicine, 5 μg/ml; TAT-S216A and TAT-S216, 10 μM. C, FACS analysis of colchicine -and peptide-treated cells. Jurkat cells were treated with colchicine (5 μg/ml) with or without peptide (10 μM) for 20 hr.

[2] = peptide synthesized on membrane (about 0.1 micro-mol/cm^2), Gst-Chk2 about 5 μg in 4 ml reaction buffer
[3] = peptide synthesized on membrane, about 0.1 micro-mol/cm^2, Gst-Chk2 about 5 μg in 4 ml

Sequence of human Chk2 kinase (O96017 whole entry): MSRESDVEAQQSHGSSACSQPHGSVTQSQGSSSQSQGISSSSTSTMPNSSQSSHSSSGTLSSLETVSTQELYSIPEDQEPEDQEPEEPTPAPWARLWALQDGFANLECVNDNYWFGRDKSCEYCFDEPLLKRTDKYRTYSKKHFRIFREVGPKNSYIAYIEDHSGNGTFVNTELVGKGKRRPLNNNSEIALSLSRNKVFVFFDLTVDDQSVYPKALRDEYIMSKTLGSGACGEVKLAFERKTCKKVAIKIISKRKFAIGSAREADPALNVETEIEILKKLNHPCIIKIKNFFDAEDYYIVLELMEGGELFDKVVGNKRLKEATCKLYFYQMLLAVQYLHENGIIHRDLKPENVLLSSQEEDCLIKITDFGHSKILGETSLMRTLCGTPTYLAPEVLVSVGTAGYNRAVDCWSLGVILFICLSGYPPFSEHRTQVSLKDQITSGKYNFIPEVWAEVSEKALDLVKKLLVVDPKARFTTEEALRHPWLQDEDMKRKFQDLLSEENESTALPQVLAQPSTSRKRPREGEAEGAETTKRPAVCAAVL

in vitro phosphorylation by human Chk2 kinase (graded signal) (human Chk2 kinase; [2])	Molecule	other results
–	LYRSPSAMPENL	phosphorylation signal by human Chk2 kinase (graded) (human Chk2 kinase): +
+	LYSSPSMFENL	–
–	1129 (WYRSPSFYENL) [compound 1129]	in vitro phosphorylation by human Chk2 kinase (graded signal) (human Chk2 kinase; [3]): +++
+	LYSSPSYFENL	–
++	LYTSPSMWENL	–
–	1124 (WYRSPSMYENL) [compound 1124]	in vitro phosphorylation by human Chk2 kinase (graded signal) (human Chk2 kinase; [3]): ++
+	LYRSPSYFENL	–
+	LYSSPSFYENL	–
++	LYSSPSHYENL	–
–	NC(=O)NO [hydroxyurea, Hydroxyurea]	histone H1 kinase activity on treatment with drug alone [1]: decreased
++	LYTSPSFFENL	–
+	LYSSPSYYENL	–
+	LYRSPSYYENL	–
+	LYSSPSYPENL	–
+	LYTSPSHPENL	–
+	LYSSPSQPENL	–
+	LFTSPSYPENL	–
++	LYTSPSYWENL	–
+	LYSSPSMPENL	–
+	LYRSPSNPENL	–
+	LYTSPSNWENL	–
+	LYTSPSHYENL	–
+	LYSSPSFPENL	–
+	LYSSPSQWENL	–

in vitro phosphorylation by human Chk2 kinase (graded signal) (human Chk2 kinase; [2])	Molecule	other results
–	1128 (WYRSPSFFENL) [compound 1128]	in vitro phosphorylation by human Chk2 kinase (graded signal) (human Chk2 kinase; [3]): ++
+	LYSSPSFFENL	–
+	LYSSPSFWENL	–
+	LYRSPSHFENL	–
+	LYSSPSMYENL	–
–	1125 (WYRSPSMWENL) [compound 1125]	in vitro phosphorylation by human Chk2 kinase (graded signal) (human Chk2 kinase; [3]): ++
+	LYTSPSNYENL	–
+++	LYTSPSYYENL	–
++	LYSSPSHPENL	–
++	LYTSPSMFENL	–
+	LYRSPSNWENL	–
++	LYSSPSHWENL	–
–	1127 (WYRSPSFPENL) [compound 1127]	in vitro phosphorylation by human Chk2 kinase (graded signal) (human Chk2 kinase; [3]): ++
+	LYRSPSYWENL	–
++	LYSSPSHFENL	–
+	LYRSPSHYENL	–
+	LYHSPSYPENL	–
++	LYTSPSMYENL	–
+	LYTSPSHWENL	–
+++	LFTSPSYYENL	–
+	LFTSPSYFENL	–
+	LYHSPSYFENL	–
+	LYSSPSMWENL	–
++	LYTSPSFWENL	–

in vitro phosphorylation by human Chk2 kinase (graded signal) (human Chk2 kinase; [2])	Molecule	other results
–	1130 (WYRSPSFWENL) [compound 1130]	in vitro phosphorylation by human Chk2 kinase (graded signal) (human Chk2 kinase; [3]): ++
+	LYRSPSHWENL	–
+	LFTSPSYWENL	–
–	1132 (WYRSPSYPENL) [compound 1132]	in vitro phosphorylation by human Chk2 kinase (graded signal) (human Chk2 kinase; [3]): ++
++	LYTSPSYPENL	–
+	LYRSPSNYENL	–
+	LYSSPSYWENL	–
+	LYTSPSNFENL	–
–	1212 (WYTSPSYPENL) [compound 1212]	in vitro phosphorylation by human Chk2 kinase (graded signal) (human Chk2 kinase; [3]): ++
–	W Y T S P S Y F E N L (WYTSPSYFENL)	phosphorylation by human Chk2 kinase (in words) (human Chk2 kinase): best phosphorylation substrates
+	RYSLPPELSNM	phosphorylation signal by human Chk2 kinase (graded) (human Chk2 kinase): +
++	LYTSPSMPENL	–
+	LYTSPSNPENL	–
++	LYTSPSFPENL	–
+	LYHSPSYWENL	–
++	LYTSPSFYENL	–
+++	LYHSPSYYENL	–
–	1134 (WYRSPSYYENL) [compound 1134]	in vitro phosphorylation by human Chk2 kinase (graded signal) (human Chk2 kinase; [3]): ++
+	LYRSPSMPENL	–
+	LYTSPSHFENL	–
++	LYTSPSYFENL	–
–	L Y R S P S Y Y E N L (LYRSPSYYENL)	phosphorylation by human Chk2 kinase (in words) (human Chk2 kinase): best phosphorylation substrates

Molecule	in vitro phosphorylation by human Chk2 kinase (graded signal) (human Chk2 kinase; [2])	other results
LYRSPSHPENL	+	–
